Measurements taken from doi:10.1101/2021.05.25.445618.

Assays:
[1] = target: C-terminally myc-tagged ClpP2 (ClpP2-2×myc) (L. monocytogenes EGD-e); experiment: affinity purification with mass spectrometry
[2] = target: L. monocytogenes ClpP1 of the co-expressed ClpP1/2 preparation (L. monocytogenes); experiment: SEC
[3] = target: L. monocytogenes ClpP1, separately overexpressed and purified (ClpP1_(7)) (L. monocytogenes); experiment: SEC
[4] = target: L. monocytogenes ClpP2, separately overexpressed and purified (ClpP2_(14)) (L. monocytogenes); experiment: SEC + other: intact protein mass spectrometry
[5] = target: L. monocytogenes ClpP1, separately overexpressed and purified (ClpP1_(7)) (L. monocytogenes); experiment: SEC + other: intact protein mass spectrometry
[6] = target: L. monocytogenes ClpP2 of the co-expressed ClpP1/2 preparation (L. monocytogenes); experiment: SEC

Substance: ClpP1, endogenous in L. monocytogenes (enzyme)
- fold enrichment at 42 °C over 20 °C [1]: 6 fold

Substance: L. monocytogenes ClpP1 of the co-expressed ClpP1/2 preparation (enzyme)
- stoichiometry N [2]: 7

Substance: L. monocytogenes ClpP1, separately overexpressed and purified (ClpP1_(7)) (enzyme)
- stoichiometry N [3]: 7
- percent ClpP1 in the tetradecamer peak [4]: 40 to 44%
- stoichiometry N [5]: 7

Substance: L. monocytogenes ClpP2 of the co-expressed ClpP1/2 preparation (enzyme)
- stoichiometry N [6]: 14

Substance: L. monocytogenes ClpP2, separately overexpressed and purified (ClpP2_(14)) (enzyme)
- stoichiometry N [4]: 14
